Assay results: paper PMC5869396 (Toxins, 2018)

B1: Nb113 (expressed from pMECS, C-terminal HA and His6 tags) (VHH)
VHH: QVQLQESGGGLVQPGGSLRLSCAASGFTFSSYYMSWVRQAPGKGPEWVSGINTGGVGTRYADSVKGRFTISRDNAKNTLYLQMNSLKPEDTALYYCAIGEGGNRNYWGQGTQVTVSS
notes: source: E. coli WK6 (pMECS), periplasmic extract, purified (IMAC, SEC)
B2: monovalent Nb113 (expressed from pHEN6c, His6 tag, without the HA tag) (VHH)
VHH: B1 VHH
notes: also called Nb113 monovalent; monomeric Nb113; source: E. coli WK6 (pHEN6c), purified (IMAC, SEC)

Assays:
[1] = target: T1, recombinant Shiga toxin-2a B subunit (rStx2aB), C-terminal 6xHis tag (Escherichia coli O157:H7 EDL933 …); assay: crystal structure; settings: both partners purified
T1 construct: source: E. coli BL21 (pET22b), periplasmic extract, purified (IMAC, SEC); not shown: His6, C-terminal, kept

[2] = target: T2, Stx2a holotoxin (Stx2a A subunit with the Stx2a B pentamer) (Escherichia coli, Stx2a strain not …, UniProt P09385;P09386); assay: pull-down; settings: one partner purified
T2 construct: copies: 1 + 5

Binder | stoichiometry N [1] | binding result [2]
B1 | 5 per pentamer | –
B2 | – | binds
